Where two headings read alike, the source gives them in different places.
Experiments:
[1] = target: mFc tagged human LAG3 ECD recombinant protein (human) (UniProt P18627); assay: competitive FACS: mFc tagged human LAG3 ECD binding to MHC II on Raji cells
[2] = target: mFc tagged human LAG3 ECD recombinant protein (human) (UniProt P18627); assay: competitive ELISA: mFc tagged human LAG3 ECD binding to plate coated LSECtin ECD
[3] = target: mFc tagged human LAG3 ECD recombinant protein (human) (UniProt P18627); assay: competitive FACS: mFc tagged human LAG3 ECD binding to MHC II on Raji cells; remark: listed apart in the source

Sequence of mFc tagged human LAG3 ECD recombinant protein (human) (P18627 23-450): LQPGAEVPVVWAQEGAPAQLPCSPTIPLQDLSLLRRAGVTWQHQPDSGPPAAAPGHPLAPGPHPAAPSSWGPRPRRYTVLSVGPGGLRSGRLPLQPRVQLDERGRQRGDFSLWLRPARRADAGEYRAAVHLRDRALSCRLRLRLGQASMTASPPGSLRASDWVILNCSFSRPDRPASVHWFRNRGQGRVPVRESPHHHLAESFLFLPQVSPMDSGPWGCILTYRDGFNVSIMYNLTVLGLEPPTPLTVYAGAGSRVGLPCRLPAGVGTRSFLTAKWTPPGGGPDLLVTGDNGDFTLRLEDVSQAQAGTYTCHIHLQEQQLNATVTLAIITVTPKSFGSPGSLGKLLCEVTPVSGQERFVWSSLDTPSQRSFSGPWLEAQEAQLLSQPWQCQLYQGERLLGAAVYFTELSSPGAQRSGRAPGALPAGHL

%Blocking at 2 nM [1]: 5.7%
%Blocking at 8 nM [1]: 3.4%
%Blocking at 4 nM [2]: 1.3%
%Blocking at 20 nM [2]: 5.6%
%Blocking at 100 nM [2]: 7.4%
%Blocking at 8 nM [3]: 10.9%
Substance: hIgG4 (antibody)

Reference: US20250313625A1
